According to the supplement of paper PMC9732359:
± gives the uncertainty stated by the source.

Assay: protein stability index of a GFP-peptide fusion (yeast GPS) (PSI 1-4); higher = more stable; sorted into four equal gates, so the index is relative within each strain
How it was run: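 Sequencing reads from sorted gates were used to score each peptide. The library consisted of tiled 17-residue yeast protein peptides fused downstream of GFP on a Cherry-expressing plasmid, pooled and carried in yeast. Mid-log cultures in leucine-free medium were split into four equal gates by GFP/Cherry ratio, and each gate's plasmids were PCR-amplified and Illumina-sequenced. The protein stability index adds up, over all gates, the read frequency multiplied by the gate number.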

| Sequence | protein stability index (doa10∆) | protein stability index (pdr5∆) | protein stability index (san1∆) | protein stability index (ubr1∆) |
| --- | --- | --- | --- | --- |
| SDWNPQADLQAMDRAHR [ISW2] | 2.93 ± 0.16 | 3.23 ± 0.12 | 3.14 ± 0.11 | 3.39 ± 0.18 |
| FISSGTSLLDSLISVLE [YJL039C/NUP192] | 2 ± 0.056 | 2.27 ± 0.052 | 2.17 ± 0.08 | 1.91 ± 0.047 |
| VDVLGTHSQTGTQQSNM [SIR4] | 3.12 ± 0.18 | 2.91 ± 0.17 |  | 3.2 ± 0.067 |
| ISLAVEGEPVNSPNYFV [COR1] | 3.09 ± 0.14 | 2.43 ± 0.094 | 2.83 ± 0.12 | 1.99 ± 0.065 |
| DILLNERVWNICLYSSF [AAR2] | 1.91 ± 0.066 | 1.68 ± 0.064 | 1.55 ± 0.14 | 1.84 ± 0.04 |
| IAYGASQLLLERLMISS [RET1] | 1.75 ± 0.092 | 1.94 ± 0.073 | 2 ± 0.16 | 1.39 ± 0.069 |
| ITVHAPLLPIVEELMKK [SNU114] | 2.38 ± 0.068 | 2.55 ± 0.054 | 2.52 ± 0.074 | 2.7 ± 0.055 |
| IQNQSPQFNSPYDSNNS [SWI1] | 2.97 ± 0.057 | 3 ± 0.053 | 2.74 ± 0.052 | 2.82 ± 0.046 |
| SKSLQESGDTQEEDEEE [RPC82] | 3.5 ± 0.19 | 3.48 ± 0.15 | 3.29 ± 0.08 | 3.48 ± 0.12 |
| QKSFEQLNSRAVAVVVD [RPN11] | 1.45 ± 0.12 | 1.72 ± 0.09 | 1.51 ± 0.16 | 1.48 ± 0.058 |
| QRILEVLGTPDQKIWPY [SSN3] | 2.2 ± 0.076 | 1.45 ± 0.057 | 1.76 ± 0.093 | 1.6 ± 0.068 |
| NEWIKAQEDVPYLLPYI [QCR7] | 2.42 ± 0.095 | 2.46 ± 0.078 | 2.6 ± 0.077 | 2.5 ± 0.056 |
| RLYVKGKHLSYQRSKRV [RPL33A] | 2.1 ± 0.063 | 1.75 ± 0.046 | 1.67 ± 0.094 | 2.46 ± 0.065 |
| QHGFEVQVGPMKVFVTK [RPB7] | 2.26 ± 0.065 | 2.41 ± 0.079 | 2.43 ± 0.089 | 2.52 ± 0.09 |
| TELVDKANIFQVIKNEV [SSN2] |  | 2.54 ± 0.18 | 2.97 ± 0.2 | 3.16 ± 0.17 |
| RRAAYGVVRYVMESGAK [RPS3] | 1.5 ± 0.1 | 1.83 ± 0.13 |  | 1.84 ± 0.094 |
| TATGIKVFSLDPQYLVD [ASC1] | 2.52 ± 0.049 | 2.67 ± 0.044 | 2.89 ± 0.039 | 2.58 ± 0.032 |
| ALSGNEGDASPFTDITV [RPB2] | 2.99 ± 0.14 | 3.12 ± 0.075 | 3.12 ± 0.099 | 3.1 ± 0.15 |
| KGGEQISQLYSDAVMAE [YJL041W/NSP1] | 2.25 ± 0.12 | 2.01 ± 0.12 | 2.19 ± 0.14 | 2.33 ± 0.13 |
| KQDEKKSSELELQKLVH [SMC2] | 3.23 ± 0.13 | 3.5 ± 0.097 | 3.4 ± 0.071 | 3.35 ± 0.051 |
| ALTTIKGVGRRYSNLVC [RPS18A] | 2.56 ± 0.089 | 2.4 ± 0.084 | 2.92 ± 0.12 | 2.62 ± 0.077 |
| HPIRLYTRYLDRIYMLF [PRP8] | 2.63 ± 0.067 | 1.76 ± 0.063 | 2.29 ± 0.1 | 2.4 ± 0.042 |
| VNRQSPLFFVDLKLLFN [RGR1] | 1.53 ± 0.065 | 1.54 ± 0.074 | 1.29 ± 0.13 | 1.23 ± 0.11 |
| KQQEQLEQQKQPTGLLK [YMR153W/NUP53] | 3.35 ± 0.13 | 3.12 ± 0.14 | 2.97 ± 0.069 | 3.15 ± 0.065 |
| ILADEMGLGKTLQTISF [ISW2] | 3.09 ± 0.07 | 3.06 ± 0.066 | 2.91 ± 0.057 | 2.77 ± 0.061 |
| KALQSIGQLIGEVMKEL [RPT4] | 3.35 ± 0.092 | 3.17 ± 0.15 | 3.39 ± 0.095 | 3.36 ± 0.058 |
